Positions count from the first letter of the chain named.
B1: SP02P: VHH single domain antibody targeting PDGFRB, SEQ ID NO: 9 (protein)
VHH: EVQLVESGGGLVQAGGSLRLSCAASESISSIEQMGWFRQAPGKQRALVAINTYGGRTVYTNSVEGRFTMSRDSAKNMVYLQMTSLEPEDTAVYYCYAQTTAWRGGVWGQGTQVTVSS
B2: SP12P: VHH single domain antibody targeting PDGFRB, SEQ ID NO: 65 (protein)
VHH: EVQLVESGGGLVQAGGSLRLSCVISGRTSPTYPMGWFRQSPGNEREFVASINWSGGWRNYADSVKGRFTISRDDAKNTVYLQMNSLKPEDTAVYYCARGQYSSGTPVYAHEYAYWGQGTQVTVSS
B3: SP20P: VHH single domain antibody targeting PDGFRB, SEQ ID NO: 113 (protein)
VHH: B2 VHH with G66D
B4: SP13P: VHH single domain antibody targeting PDGFRB, SEQ ID NO: 73 (protein)
VHH: EVQLVESGGGLVQPGGSLRLSCAASESIFSINYMAWYRQAPGKQRELVAFSIDGSSTNYVDSVRGRFTASRDNAENTLYLQMNSLKPEDTAVYYCYAQGNTWAAGVWGQGTQVTVSS
B5: SP07P: VHH single domain antibody targeting PDGFRB, SEQ ID NO: 33 (protein)
VHH: EVQLVESGGGSVQTGGSLRLSCAASGRSFSTYAMAWFRQAPGKEREFVAAINRRATDTVYADSAKGRFIISRDNDKNTVYLQMDSLKTEDTAVYYCAAAKNAYDWRWDRLRDRDYWGQRGQGTQVTVSS
B6: SP01P: VHH single domain antibody targeting PDGFRB, SEQ ID NO: 1 (protein)
VHH: EVQLVESGGGLAQAGGSLRLSCVASGNIDSANGMAWYRQAPGKQRELVAHITSGTSYYVASVEGRFTISRANAKDTWYLQMNSLKPEDTGVYYCFPIGLSAHWSQGTQVTVSS
B7: SP08P: VHH single domain antibody targeting PDGFRB, SEQ ID NO: 41 (protein)
VHH: EVQLVESGGGLVQAGGSLRLSCAASGRTFNGYAMAWFRQAPGKERDFVASITWSYGYTYYADSAQGRFTISRDSAKNTVYLEMNSLKPEDTAVYYCAADPKASRFRILRQYAHWGQGTQVTVSS
B8: SP05P: VHH single domain antibody targeting PDGFRB, SEQ ID NO: 25 (protein)
VHH: EVQLVESGGGLVQAGGSLRLSCAASGRTSFSGYAMAWFRQAPGKERDFVASITWSYGYTYYTDSAQGRFTISRDSAKNTVYLEMNSLKPEDTAVYYCAADPKASRFRILREYAYWGQGTQVTVSS
B9: SP14P: VHH single domain antibody targeting PDGFRB, SEQ ID NO: 81 (protein)
VHH: EVQLVESGGGLVQAGDSLRLSCVVSGLTFSRYGMGWFRQATGKEREFVGGISVGSSGTMYPNSVKGRFTISRDNAKSTVYLQMNSLKPEDTAVYFCAAIDQGSFVQQRDYRYWGQGTQVTVSS
B10: SP10P: VHH single domain antibody targeting PDGFRB, SEQ ID NO: 49 (protein)
VHH: EVQLVESGGGLVQAGGSLRLSCAASGRTFNGYAMGWFRQAPGKERDFVAAITWSYGYTHYAESVKGRFSISRDSANNMVYLEMNSLKPEDTAVYYCAADPKASRFRTLRRYDYWGQGTQVTVSS
B11: 13E8: VHH single domain antibody targeting IGF2R, SEQ ID NO: 249 (protein)
VHH: EVQLVESGGGLVQAGGSLRLSCAASRSISPMGWYRQAPGKQRELVAIMPSSGPPIYADSVQGRFTISRDNAKNTVYLQMNSLKPEDTAVYYCNVGGGYWGQGTQVTVSS
B12: 13A12: VHH single domain antibody targeting IGF2R, SEQ ID NO: 289 (protein)
VHH: EVQLVESGGGLVQAGGSLRLSCAASGIIFGANTVGWYRQVPGKERDVVASITSGDSTYYGDSVRGRFTISRDNAKNTMYLQMNSLKPEDTAIYYCRARTTDGSYWGQGTQVTVS
B13: 13A8: VHH single domain antibody targeting IGF2R, SEQ ID NO: 257 (protein)
VHH: EVQLVESGGGLVPAGGSLRLSCAASGRTFSNYAMGWFRQAPGKERKFVATISWSGGVTYYADSVKGRFTISRDNAKNTVYLLMNSLKPEDTAVYYCAAKRDSSSYDHRRYDYWGQGTQVTVSS
B14: 13C11: VHH single domain antibody targeting IGF2R, SEQ ID NO: 297 (protein)
VHH: EVQLVESGGGLVQAGGSLRLSCAASGLTFSSYTMAWYRQAPGKEREVVAAISSGDSIYHEGSVQGRFIISRDNAKNTVYLQMNSLKAEDTAVYYCRANGPGTYWGQGTQVTVSS
B15: 13G10: VHH single domain antibody targeting IGF2R, SEQ ID NO: 305 (protein)
VHH: B14 VHH with G61D

Target: hPDGFRB (Homo sapiens, UniProt P09619)
Sequence (P09619 33-532 limits assumed): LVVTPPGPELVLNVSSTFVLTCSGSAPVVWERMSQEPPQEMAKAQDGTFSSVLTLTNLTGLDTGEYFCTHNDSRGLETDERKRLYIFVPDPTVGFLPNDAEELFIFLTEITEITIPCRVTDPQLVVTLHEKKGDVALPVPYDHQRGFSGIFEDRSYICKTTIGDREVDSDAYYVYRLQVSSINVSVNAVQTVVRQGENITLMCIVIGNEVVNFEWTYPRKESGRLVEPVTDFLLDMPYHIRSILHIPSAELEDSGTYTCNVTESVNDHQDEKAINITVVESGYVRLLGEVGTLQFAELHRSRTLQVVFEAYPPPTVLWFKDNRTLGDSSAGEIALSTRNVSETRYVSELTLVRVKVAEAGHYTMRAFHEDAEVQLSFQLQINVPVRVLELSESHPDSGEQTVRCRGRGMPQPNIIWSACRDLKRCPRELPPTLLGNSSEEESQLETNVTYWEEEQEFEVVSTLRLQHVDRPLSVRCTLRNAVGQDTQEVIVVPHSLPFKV
Experiment: Competition assays of PDGFRB VHHs on hPDGFRB
Format: binding
Conditions: IRDye800-conjugated SP26P as reporter
Method: (§1) Biparatopic VHH constructs contain two VHH which bind to a different epitope, i.e. which are non-competitive binders. To identify (a) pair(s) of non-competitive binders, competition assays were performed. In the example shown, an Alexa fluor-conjugate of the high affine VHH 13F11 was used as the reporter VHH (13F11-A647, see example 10.2). In the assay, a non-saturating amount (10 nM) of 13F11-A647 was incubated with immobilized hIGF2R-ECD in the presence or absence of 250 nM unconjugated competitor VHH to allow competition to take place.
Similar as to in example 6.1, competition assays were performed to identify unique hPDGFRB- or rPDGFRB binders. Across 10 PDGFRB-binding VHHs obtained from libraries 1 and 2 (e.g. the VHH raised against hPDGFRB), four main groups were identified being first SP01P, SP02P, SP07P and SP13P, second SP05P, SP08P and SP10P, third SP12P and SP20P and finally SP14P. All VHH within each of the first three groups mutually competed.
To evaluate whether the obtained VHHs would qualify as building blocks for multivalent VHH constructs that bind hPDGFRB as well as rPDGFRB (e.g. ‘species cross-reactive’ VHH constructs), competition assays were performed using the most promising VHHs SP02 (raised against hPDGFRB) and SP26P (raised against rPDGFRB).

Row | competition between SP02 and SP26P | Molecule
1 | did not compete | B1

Same assay, conditions: VHHs from libraries 1 and 2; four main groups

Row | epitope group (mutual competition) | Molecule
2 | third | B2
3 | third | B3
4 | first | B4
5 | first | B5
6 | first | B6
7 | second | B7
8 | first | B1
9 | second | B8
10 | lone VHH | B9
11 | second | B10

Target: T1, hIGF2R-ECD (Homo sapiens, UniProt P11717)
T1 construct: immobilized recombinant human extracellular domain of IGF2R (hIGF2R-ECD) was used
Experiment: Competition assay with 13F11-A647 as reporter VHH on immobilized hIGF2R-ECD
Format: binding
Conditions: 10 nM 13F11-A647, 250 nM unconjugated competitor VHH
Method: With the term “compete” is meant that in a competition assay, such as for instance described in Example 6 of the present invention, the addition of a binding molecule induces a significant decrease in binding of a given VHH, i.e., the VHH to which the competing is determined. “Significant” in this respect is preferably a decrease of >5%, preferably >10% when 250 nM of a binding molecule is added to 10 nM of a fluorescence labelled VHH in an ELISA. […] The same test conditions and threshold apply to a binding molecule directed to PDGFRB when determining whether a binding molecule competes with a given VHH.
as §1

Row | competition with reporter VHH 13F11-A647 | Molecule
12 | did not compete with 13F11 | B11
13 | competed with 13F11 | B12
14 | competed with 13F11 | B13
15 | competed with 13F11 | B14
16 | competed with 13F11 | B15

Same assay, conditions: 10 nM labelled 13F11, 250 nM unlabelled competitor VHH

Row | Molecule | less fluorescence intensity (decrease in binding of labelled 13F11)
17 | B11 | less than 5%
18 | B12 | substantially more decrease in fluorescence intensity
19 | B13 | substantially more decrease in fluorescence intensity
20 | B14 | substantially more decrease in fluorescence intensity
21 | B15 | substantially more decrease in fluorescence intensity
